Laboratory results as given in publication PMC9606368, “Membrane mediated phase separation of the bacterial nucleoid occlusion protein Noc” (Scientific Reports, 2022).
Numbering of substitutions follows the chain as printed. Names and notes keep the numbering of the source. Each block holds one binder with its values, some of them ahead of it.

How the values were obtained:
[1] = target: T1, nucleoid occlusion protein Noc (wild type) (B. subtilis, UniProt P37524 1-283); experiment: recruitment to GUV membranes (confocal microscopy); 3 µM unlabelled WT Noc added to Atto488-Noc R89A and GUVs (70:30 POPC:POPG); the mutant alone at 4 µM with 1 mM CTP and 1.5 µM dsNBS does not bind the GUV; settings: both partners purified
T1 construct: Nucleoid occlusion protein Noc, a ParB-like protein of B. subtilis; In the microscopy with FtsZ the legends say only 'Noc'; part of it may have been the KCK-tagged, Atto488-labelled form; also called WT Noc; wildtype Noc; source: E. coli Rosetta (DE3), purified (HisTrap, Heparin HP, Superdex-75)
T1 sequence (looked up): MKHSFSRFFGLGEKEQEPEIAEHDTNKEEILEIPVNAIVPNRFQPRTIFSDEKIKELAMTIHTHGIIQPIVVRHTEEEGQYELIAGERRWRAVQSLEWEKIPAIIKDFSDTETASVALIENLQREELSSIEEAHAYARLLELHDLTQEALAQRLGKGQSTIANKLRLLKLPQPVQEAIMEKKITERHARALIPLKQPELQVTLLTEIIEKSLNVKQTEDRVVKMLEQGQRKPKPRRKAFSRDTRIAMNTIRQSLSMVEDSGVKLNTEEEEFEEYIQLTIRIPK

[2] = target: T2, nucleoid occlusion protein Noc (wild type) (Bacillus subtilis (strain 168), UniProt P37524); experiment: QCM-D on SLB; FtsZ GTPase assay; non-phase-separated Noc; FtsZ is up-concentrated only in Noc condensates
T2 chain: T1 sequence (looked up)

[3] = target: T2, nucleoid occlusion protein Noc (wild …); experiment: MST; non-phase-separated Noc; labelled FtsZ strongly partitions into Noc condensates once Noc phase separates

binding result [1]: binds
B1: Atto488-Noc R89A (non-CTP-binding mutant, KCK-tagged, labelled) (natural protein, B. subtilis, UniProt P37524 1-283, looked up)
chain: T1 sequence (looked up) with R89A
modifications: Atto488 maleimide on cysteine (KCK tag)
notes: Nucleoid occlusion protein Noc of B. subtilis with R89A; Labelling efficiency of ~20% is told for KCK-tagged Noc

binding result [2]: no binding
B2: B. subtilis FtsZ (protein)
chain: MLEFETNIDGLASIKVIGVGGGGNNAVNRMIENEVQGVEYIAVNTDAQALNLSKAEVKMQIGAKLTRGLGAGANPEVGKKAAEESKEQIEEALKGADMVFVTAGMGGGTGTGAAPVIAQIAKDLGALTVGVVTRPFTFEGRKRQLQAAGGISAMKEAVDTLIVIPNDRILEIVDKNTPMLEAFREADNVLRQGVQGISDLIATPGLINLDFADVKTIMSNKGSALMGIGIATGENRAAEAAKKAISSPLLEAAIDGAQGVLMNITGGTNLSLYEVQEAADIVASASDQDVNMIFGSVINENLKDEIVVTVIATGFIEQEKDVTKPQRPSLNQSIKTHNQSVPKREPKREEPQQQNTVSRHTSQPADDTLDIPTFLRNRNKRG

binding result [3]: no binding
B3: B. subtilis FtsZ labelled with Alexa-Fluor 647 NHS ester (protein)
chain: B2 chain
modifications: Alexa-Fluor 647 NHS ester
